Test results taken from patent publication US20200040045, “CARBOHYDRATE PRODUCING PLANT MATERIAL” (GREEN RICE SWEDEN AB, published 2020).

Tests used:
SUSIBA2 = SUSIBA2 (Hordeum vulgare, UniProt Q6VWJ6 SEQ:1-573); assay: EMSA; 0.2 ug SUSIBA2; displaced by SUSIBA1; conditions: tags: overexpressed and purified; label: 32P
Protocol: (§1) The infiltrated leaves were incubated at 40 mM Suc. Two days after infiltration and incubation, qPCR analysis was performed. (C) Transcript levels of SUSIBA2 after co-infiltration of agrobacteria containing p35S:SUSIBA2 with the double-stranded decoy oligoes upon antisense inhibition of SUSIBA1. (D) Transcript levels of SUSIBA2 after infiltration of agrobacteria containing p35S:SUSIBA2 alone or the double-stranded decoy oligoes alone at 100 mM Suc. The infiltrated leaves were incubated at 100 mM Suc for two days before analysis. Significant differences are analyzed statistically between p35S:SUSIBA1 and decoy oligoes, and indicated by asterisks (**p≤0.01) in (B), and between p35:SUSIBA2 and decoy oligoes in (C), and between p35:SUSIBA2 and decoy oligoes in (D). One-way ANOVA was used (Error bars show s.d.) Three independent experiments were performed (n=3). (E) EMSA analysis of competitive activity to the W-box in the SUSIBA2 promoter between SUSIBA2 and SUSIBA1. EMSA of binding activity to the W-box of SUSIBA2 (left panel) and SUSIBA1 (middle panel) and SUSIBA2 and SUSIBA1 in competing (right panel). SUSIBA2 and SUSIBA1 were overexpressed and purified from E. coli and challenged with two oligoes. […]

SUSIBA1 [1] = molecular target: SUSIBA1 (Hordeum vulgare); assay: EMSA; 0.0125-0.2 ug SUSIBA1 prevents binding of 0.2 ug SUSIBA2 to the W-box; conditions: tags: overexpressed in and purified from E. coli; label: 32P
SUSIBA1 (Hordeum vulgare), sequence (Q6VWJ6 293-573): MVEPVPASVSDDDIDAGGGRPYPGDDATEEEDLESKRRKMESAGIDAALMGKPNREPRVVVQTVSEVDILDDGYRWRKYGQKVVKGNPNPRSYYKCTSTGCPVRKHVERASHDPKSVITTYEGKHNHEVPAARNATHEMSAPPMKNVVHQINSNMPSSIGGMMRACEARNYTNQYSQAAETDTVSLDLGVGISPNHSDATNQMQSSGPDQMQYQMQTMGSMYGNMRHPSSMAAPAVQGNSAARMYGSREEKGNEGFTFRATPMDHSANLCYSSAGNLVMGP
Protocol: as §1

SUSIBA1 [2] = molecular target: SUSIBA1 (Hordeum vulgare); assay: EMSA; conditions: tags: overexpressed in and purified from E. coli; label: 32P; second strand printed as 3'-5' complement, annealed duplex
Protocol: (§2) Bars in (A-D)=5 μm and in (K-M)=100 μm. One-way ANOVA was used (Error bars show s.d. and **p≤0.01 between heat-killed background and living agrobacteria).
(§3) Having identified SUSIBA1 p, the potential involvement of SUSIBA1 in fructan synthesis was investigated. […] Electrophoretic mobility shift assay (EMSA) was used to study the in vitro interaction between SUSIBA1 and the promoter of 6-SFT that encodes a key enzyme in synthesis of fructan in barley. EMSA was performed as described previously using overexpressed and purified SUSIBA1 from E. coli (FIG. 8E to 8J). In accordance with the hallmark of WRKY proteins, it was shown that the […] TF bound to the W-box DNA cis-element. […] Examination of the 6-SFT promoter led to identification of two SUREa, three W-box and one SP8a element (FIG. 8E). Using different combinations of the restriction enzymes BstXI, PvulI and SpeI, the full-length promoter (fragment 1) was resolved into four fragments (fragments 2-5, FIG. 8E). […] To confirm the specificity of the binding activity, the element sequences (FIG. 8I) were engineered and the binding of SUSIBA1 was tested. […] No binding activity of SUSIBA1 to the engineered element sequences, i.e., SP8a M, W-box M and SUREa M4 also indicated the reliability of EMSA in the assay system (FIG. 8J). […]

SUSIBA1 [3] = molecular target: SUSIBA1 (Hordeum vulgare); assay: EMSA; A-stretch substitution; conditions: tags: overexpressed in and purified from E. coli; label: 32P
Protocol: as §2, §3

SUSIBA2, sequence (Q6VWJ6 whole entry): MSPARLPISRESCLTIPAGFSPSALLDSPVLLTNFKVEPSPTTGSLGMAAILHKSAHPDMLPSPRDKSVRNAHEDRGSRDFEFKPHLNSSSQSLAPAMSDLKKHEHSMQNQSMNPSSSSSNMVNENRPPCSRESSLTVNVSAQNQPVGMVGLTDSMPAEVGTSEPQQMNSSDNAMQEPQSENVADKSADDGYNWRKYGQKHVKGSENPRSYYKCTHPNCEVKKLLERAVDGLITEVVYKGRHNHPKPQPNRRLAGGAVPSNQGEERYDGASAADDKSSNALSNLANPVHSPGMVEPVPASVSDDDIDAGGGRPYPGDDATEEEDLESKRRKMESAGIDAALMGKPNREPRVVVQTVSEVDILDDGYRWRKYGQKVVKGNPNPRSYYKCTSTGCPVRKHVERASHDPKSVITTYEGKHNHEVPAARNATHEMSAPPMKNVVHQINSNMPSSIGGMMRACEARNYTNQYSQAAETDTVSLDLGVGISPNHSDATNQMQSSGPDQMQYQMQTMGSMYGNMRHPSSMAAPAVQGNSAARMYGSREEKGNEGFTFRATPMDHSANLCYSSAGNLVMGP

B1: SUSIBA2 promoter W-box oligo (dsDNA)
DNA 1: TAGGTCGTCAATTTGACTTATATAAAATAT
DNA 2: ATATTTTATATAAGTCAAATTGACGACCTA
Does B1 bind (SUSIBA2)?
Result: binds

Does B1 bind (SUSIBA1 [1])?
Result: binds

B2: 6-SFT SP8a (dsDNA)
DNA 1: CTGTACTGTGTTTTTAGCCT
DNA 2: AGGCTAAAAACACAGTACAG
Does B2 bind (SUSIBA1 [2])?
Result: binds

B3: SUREa M4 (dsDNA)
DNA 1: CAAAAAAAAAAAAAAAAAAC
DNA 2: GTTTTTTTTTTTTTTTTTTG
Does B3 bind (SUSIBA1 [3])?
Result: no binding

B4: 6-SFT SUREa (dsDNA)
DNA 1: CACACATGGCACGCCAAAAC
DNA 2: GTTTTGGCGTGCCATGTGTG
Does B4 bind (SUSIBA1 [2])?
Result: binds
